Experimental data as given in patent US8956838B2, “Carboxyl esterase polypeptides” (B.R.A.I.N., priority 2006, dated 2015).

Assays:
Format in all cases: biochemical
[1] = Effect of bivalent cations and EDTA on catalytic activity
[2] = Enantioselectivity, GC analysis of hydrolysis of acetic acid esters; conditions: for conversion %: ^2 only complete conversion could be measured
Procedure: To assay the activity of the enzymes on a range of acetic acid esters gas chromatography was used. The samples were analyzed for the production of chiral alcohols by the gas chromatograph GC-17A (Shimadzu, Duisburg, Germany) equipped with FID detector and CP-Chirasil-DEX CB (Chrompack (Middelburg, Netherlands), 25 m×0.25 mm ID) at a helium flow of 1.3 ml/min. The temperature programme included: 5 min at 60° C., followed by an increase of 5° C. per min until 190° C. was reached. For the GC analysis, activity-tests were run in 1 M Tris buffered solutions and using 10 mM substrates dissolved in DMSO as 0.1 M stock solutions. 2 μg of the enzyme were added and tests incubated over night before the corresponding alcohols could be extracted by treatment with acetic acid ethyl ester and analyzed by GC.

[3] = Enzyme activity fingerprinting with substrate cocktails; conditions: substrate 7-(3-octylcarboxy-(3-hydroxy-3-methyl-butyloxy))-coumarine; fingerprint analysis, 15 μM, 30 min
Procedure: The enzyme activity fingerprinting used 10 substrates and was carried out as described previously. The assay conditions were 75% PBS buffer at pH 7.4, 25% DMSO and 0.0025% SDS. Each substrate was present in the cocktail at 15 μM, the total concentration of the substrate cocktail was 150 μM. EstA3 was added at a concentration of 0.75 mg/L and EstCE1 at 0.2075 mg/L. The reaction time was 30 min. The chemical background was measured by recording the products observed under the same assay conditions after a 5 day incubation in the absence of the enzyme. The blank value was taken from the reaction after 30 min incubation in the absence of the enzyme.

[4] = acetic acid ester of R-(+)-3-chlor-1-phenyl-1-propanol
[5] = acetic acid ester of rac-1-octin-3-ol
[6] = acetic acid ester of trimethylsilylbutinol
[7] = substrate Acetic acid ester of tetrahydronaphthylamin
[8] = substrate acetic acid ester of (+/−)-1-octin-3-ol
[9] = substrate acetic acid ester of (+/−)-1-octin-3-ol, 10 mM, over night
[10] = substrate acetic acid ester of R-(+)-3-chlor-1-phenyl-1-propanol
[11] = substrate acetic acid ester of cis-1,2-cyclohexandiol, values marked ^1: substrate conversion after 12 h
[12] = substrate acetic acid ester of phenylethylamin
[13] = substrate acetic acid ester of trans-1,2-cyclohexandiol
[14] = substrate acetic acid ester of trans-1,2-cyclohexandiol, in text: conversion of the preferred enantiomer
[15] = substrate acetic acid ester of trimethylsilylbutinol
[16] = substrate cis-3,5-diacetoxy-1-cyclopenten
[17] = substrate cis-3,5-diacetoxy-1-cyclopenten, conversion for the preferred enantiomer
[18] = substrate isopropylidenglycerolacetate (rac.), values marked ^1: substrate conversion after 12 h
[19] = substrate menthylacetate, 1. enantiomer (+)
[20] = substrate menthylacetate, 2.e. (−)

B1: EstCE1: recombinant enzyme having carboxyl esterase activity, amino acid sequence SEQ ID NO: 4, family VIII of bacterial lipolytic enzymes (protein)
chain: MSIADQSLAKRVQGVSQQAIDEGRIVGSVVLIARHGRVIYANASGYADREQKKPMVRETQFRLSSVSKPYITLAAMRMIEQQKLGLDDTVSRWLPWFTPALADGVRPPIKIRHLLSHTAGLDYRLSQPAEGPYHRLGIKDGMELSSLTLEQNLRLLAQADLLAEPGSEFRYSLAIDVLGAVLEQVAGEPLPQVFNHWVAQPLGLRNTGFYTTDVDNLATAYHDTAAEPEPIRDGMLLTLPEGFGFEIELAPSRALDAQAYPSGGAGMVGDADDVLQLVETLRTGKEGILQPATAALMRQAHVGSHAETQGPGWGFGFGGAVLEDAQLAATPQHNGTLQWGGVYGHSWFYDPQAAISVVALTNTAFEGMSGRYPLQIRDAVYGTNEPTR
modifications: metagenomic sequence
- stimulatory effect on catalytic activity ([1]; in the presence of Ca^2+): 118%
- stimulatory effect on catalytic activity ([1]; in the presence of Mg^2+): 108%
- hydrolysis, in words [2, 4]: capable of hydrolyzing
- conversion, in words ([2]; acetic acid ester of cis-1,2-cyclohexanediol): capable of converting
- conversion, in words ([2]; acetic acid ester of isopropylidene glycerol): capable of converting
- hydrolysis, in words [2, 5]: capable of hydrolyzing
- hydrolysis, in words [2, 6]: capable of hydrolyzing
- conversion % of 1.e [2, 7]: 0%
- conversion % of 2.e [2, 7]: 0%
- ee % [2, 8]: 3%
- conversion % of 1.e [2, 9]: 64%
- conversion % of 2.e [2, 9]: 60%
- conversion % [2, 10]: 100^2%
- ee % ([2]; substrate acetic acid ester of cis-1,2-cyclohexandiol): 0%
- conversion % of 1.e [2, 11]: 100^1%
- conversion % of 2.e [2, 11]: 100^1%
- conversion % of 1.e [2, 12]: 0%
- conversion % of 2.e [2, 12]: 0%
- conversion % of 2.e [2, 13]: 45%
- ee % [2, 13]: 38%
- conversion % of 1.e [2, 14]: 100%
- conversion % [2, 15]: 100^2%
- conversion % of 2.e [2, 16]: 59%
- ee % [2, 16]: 66%
- conversion % of 1.e [2, 17]: 12%
- ee % ([2]; substrate isopropylidenglycerolacetate (rac.)): 0%
- conversion % of 1.e [2, 18]: 100^1%
- conversion % of 2.e [2, 18]: 100^1%
- ee % ([2]; substrate menthylacetate (rac), for the (+)-enantiomer): 100%
- conversion % of 1.e [2, 19]: 100%
- conversion % of 2.e [2, 20]: 0%

B2: EstA3: recombinant enzyme having carboxyl esterase activity, amino acid sequence SEQ ID NO: 2, family VIII of bacterial lipolytic enzymes (protein)
chain: MSAEELGFLPDRLARISDHIQTNYLDNGKLPFASLLIGRGDDIALQWSSGVADDAIFRIASMTKPVTSVAFMQLVEQGKVALTDPVAKYIPEFAKLGVFVAGGGNIPFVSRPPTMPMRIVDVLRHTTGFTYSFQERSNIDAAYRKTDVESWTRSTSQSFIDTLAEIPLEFDPGTQWNYSVSTDVLGILIERISGQSLPDYFRDHIFAPLGMVDTCFTVPADKAARIPQCFAFDPATKMKLFDEAGASSLWTKGWSFNSGGGGLASSVADYHRFCRMLLNGGALDGIQIISPKTLELMTANHLPGGQDLTQMSKSLFSEAEMAGIGFGLGFATTIDSVATLTPCSTGDFYWGGMYSTAFFVDPVEDIIMIFMTQLMPSSTYPVRREIKTMIYSALAA
modifications: metagenomic sequence
- effect on activity, in words ([1]; Ca^2+, Cu2+, Mg^2+, Zn^2+, Rb^2+ and EDTA): inhibitory effect
- stimulation of catalytic activity ([1]; in the presence of Co^2+): about 130%
- hydrolysis, in words [2, 4]: capable of hydrolyzing
- hydrolysis, in words [2, 5]: capable of hydrolyzing
- hydrolysis, in words [2, 6]: capable of hydrolyzing
- conversion % of 1.e [2, 7]: 0%
- conversion % of 2.e [2, 7]: 0%
- ee % [2, 8]: 12%
- conversion % of 1.e [2, 9]: 24%
- conversion % of 2.e [2, 9]: 18%
- conversion % [2, 10]: 6^2%
- conversion % of 1.e [2, 11]: 0%
- conversion % of 2.e [2, 11]: 0%
- conversion % of 1.e [2, 12]: 0%
- conversion % of 2.e [2, 12]: 0%
- conversion % of 2.e [2, 13]: 0%
- conversion % of 1.e [2, 14]: 0%
- conversion % [2, 15]: 45^2%
- conversion % of 2.e [2, 16]: 0%
- ee % [2, 16]: 100%
- conversion % of 1.e [2, 17]: 24%
- conversion % of 1.e [2, 18]: 0%
- conversion % of 2.e [2, 18]: 0%
- conversion % of 1.e [2, 19]: 0%
- conversion % of 2.e [2, 20]: 0%
- conversion of secondary ester, in words [3]: able to convert
